The target of data set [1] is matuzumab HC_20.8_B + matuzumab LC (IgG1). As to the kind of experiment: LCMS, IgG1 BsAb co-expression; HCA/HCB heterodimer carrying two LC2.
In data set [2] the target is matuzumab HC_20.8.34_B + matuzumab LC (IgG1). The description is as above.
Data set [3] deals with matuzumab HC_20.8.37_B + matuzumab LC (IgG1). The description is as above.
Data set [4] addresses matuzumab HC_20.8_B + matuzumab LC (IgG1). Put plainly: LCMS, IgG1 BsAb co-expression; HCA/HCB heterodimer carrying two LC1.
Data set [5] concerns the target matuzumab HC_20.8.34_B + matuzumab LC (IgG1). The data set is described as above.
For data set [6], the target named is matuzumab HC_20.8.37_B + matuzumab LC (IgG1). The description is as above.
Data set [7] concerns the target matuzumab HC_20.8_B + matuzumab LC (IgG1). Put plainly: LCMS, IgG1 BsAb co-expression in HEK293F.
In data set [8] the target is matuzumab HC_20.8.34_B + matuzumab LC (IgG1). Put plainly: LCMS, IgG1 BsAb co-expression in HEK293F.
In data set [9] the target is matuzumab HC_20.8.37_B + matuzumab LC (IgG1). Put plainly: LCMS, IgG1 BsAb co-expression in HEK293F.
Data set [10] concerns the target matuzumab HC_20.8.34_B + matuzumab LC (IgG4 HC backbone). Put plainly: LCMS, IgG4 BsAb co-expression; HCA/HCB heterodimer carrying two LC2.
The target is the same in data set [11]. As to the kind of experiment: LCMS, IgG4 BsAb co-expression; HCA/HCB heterodimer carrying two LC1.
Data set [12] has the same target. Put plainly: LCMS, IgG4 BsAb co-expression in HEK293F.
Data set [13] is described as follows: LCMS, IgG4 BsAb co-expression; HCA homodimer species.
The target of data set [14] is matuzumab HC_7.8.60_B + matuzumab LC (IgG4 HC backbone). Put plainly: LCMS, IgG4 BsAb co-expression; HCA/HCB heterodimer carrying two LC2.
Data set [15] shares this target. Put plainly: LCMS, IgG4 BsAb co-expression; HCA/HCB heterodimer carrying two LC1.
For data set [16] the target is unchanged. As to the kind of experiment: LCMS, IgG4 BsAb co-expression in HEK293F.
The target in data set [17] is T1, HA-tagged human IgG1 Fc portion with CH3 mutations Y349S, K370Y, T366V, K409V.
T1 chain: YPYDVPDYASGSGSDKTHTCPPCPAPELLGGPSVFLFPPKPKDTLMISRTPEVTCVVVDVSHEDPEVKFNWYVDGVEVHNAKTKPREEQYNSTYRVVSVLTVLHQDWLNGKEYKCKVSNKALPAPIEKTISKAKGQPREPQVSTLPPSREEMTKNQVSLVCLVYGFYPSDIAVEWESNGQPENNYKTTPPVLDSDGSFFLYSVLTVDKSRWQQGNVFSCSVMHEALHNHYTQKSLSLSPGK
As to the kind of experiment: UPLC SEC of protein G-purified one-arm antibody co-expressed in HEK293F.

Data set [18] addresses T2, HA-tagged human IgG1 Fc portion with CH3 mutations Y349S, K370Y, T366M, K409V.
T2 chain: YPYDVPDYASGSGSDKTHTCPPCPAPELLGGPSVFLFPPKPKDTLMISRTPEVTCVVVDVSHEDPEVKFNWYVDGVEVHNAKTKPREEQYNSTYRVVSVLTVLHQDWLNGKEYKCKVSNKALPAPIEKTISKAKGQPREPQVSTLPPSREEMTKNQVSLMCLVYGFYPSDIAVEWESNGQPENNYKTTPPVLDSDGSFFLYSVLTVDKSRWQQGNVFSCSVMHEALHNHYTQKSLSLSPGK
The data set is described as above.

B1: MetMAb HC_20.8.26_A + MetMAb LC (IgG1) (protein)
chain 1: EVQLVESGGGLVQPGGSLRLSCAASGYTFTSYWLHWVRKAPGKGLEWVGMIDPSNSDTRFNPEFKDRFTISADTSKNTAYLQMNSLRAEDTAVYYCATYRSYVTPLDYWGQGTLVTVSSASTKGPSVFPLAPSSKSTSGGTAALGCLVKDYFPEPVTVSWNSGALTSGVATGPAVLQSSGLYSLSSVVTVPSSSLGTQTYICNVNHKPSNTKVDKKVEPKSCDKTHTCPPCPAPELLGGPSVFLFPPKPKDTLMISRTPEVTCVVVDVSHEDPEVKFNWYVDGVEVHNAKTKPREEQYQSTYRVVSVLTVLHQDWLNGKEYKCKVSNKALPAPIEKTISKAKGQPREPQVSTLPPSREEMTKNQVSLMCLVYGFYPSDIAVEWESNGQPENNYKTTPPVLDSDGSFFLYSVLTVDKSRWQQGNVFSCSVMHEALHNHYTQKSLSLSPGK
chain 2: RIQMTQSPSSLSASVGDRVTITCKSSQSLLYTSSQKNYLAWYQDKPGKAPKLLIYWASTRESGVPSRFSGSGSGTDFTLTISSLQPEDFATYYCQQYYAYPWTFGQGTKVEIKGQPKAAPSVTLFPPSSEELQANKATLVCYISDFYPGAVTVAWKADSSPVKAGVETTTPSKQSNNKYAAWSYLSLTPEQWKSHRSYSCQVTHEGSTVEKTVAPTEC
Turning to B1, the % AB (2x LC2) (incorrect assembly) in data set [1] came out at 33.3%; in data set [2], 4.2%; in data set [3], 20.9%. Moreover, the % AB (2x LC1) (incorrect assembly) in data set [4], in [5] and in [6] was 0% in each case. The values for the % AB (LC1/LC2) (correct IgG BsAb assembly) in [7], in [8] and in [9] were 58.6%, 95.8% and 79.1%, respectively.

B2: MetMAb HC_20.8.34_A + MetMAb LC (IgG4 HC backbone) (protein)
chain 1: EVQLVESGGGLVQPGGSLRLSCAASGYTFTSYWLHWVRKAPGKGLEWVGMIDPSNSDTRFNPEFKDRFTISADTSKNTAYLQMNSLRAEDTAVYYCATYRSYVTPLDYWGQGTLVTVSSASTKGPSVFPLAPCSRSTSESTAALGCLVKDYFPEPVTVSWNSGALTSGVATGPAVLQSSGLYSLSSVVTVPSSSLGTKTYTCNVDHKPSNTKVDKRVESKYGPPCPPCPAPEAAGGPSVFLFPPKPKDTLMISRTPEVTCVVVDVSQEDPEVQFNWYVDGVEVHNAKTKPREEQFQSTYRVVSVLTVLHQDWLNGKEYKCKVSNKGLPSSIEKTISKAKGQPREPQVSTLPPSQEEMTKNQVSLMCLVYGFYPSDIAVEWESNGQPENNYKTTPPVLDSDGSFFLYSVLTVDKSRWQEGNVFSCSVMHEALHNHYTQKSLSLSLG
chain 2: RIQMTQSPSSLSASVGDRVTITCKSSQSLLYTSSQKNYLAWYQDKPGKAPKLLIYWASTRESGVPSRFSGSGSGTDFTLTISSLQPEDFATYYCQQYYAYPWTFGQGTKVEIKGQPKAAPSVTLFPPSSEELQANKATLVCYISDFYPGAVTVAWKADSSPVKAGVETTTPSKQSNNKYAAWSYLSLTPEQWKSHRSYSCQVTHEGSTVEKTVAPTEC
Regarding B2, the % AB (2x LC2) (incorrect assembly) in data set [10] was determined as 0%. In addition, in data set [11], the % AB (2x LC1) (incorrect assembly) was determined as 0%. The % AB (LC1/LC2) (correct IgG BsAb assembly) in data set [12] was 100%. For the same protein, the % AA Homodimer (incorrect assembly) in data set [13] was determined as 0%.

B3: MetMAb HC_7.8.60_A + MetMAb LC (IgG4 HC backbone) (protein)
chain 1: EVQLVESGGGLVQPGGSLRLSCAASGYTFTSYWLHWVRKAPGKGLEWVGMIDPSNSDTRFNPEFKDRFTISADTSKNTAYLQMNSLRAEDTAVYYCATYRSYVTPLDYWGQGTLVTVSSASTKGPSVFPLAPCSRSTSESTAALGCLVKDYFPEPVTVSWNSGALTSGVATGPAVLQSSGLYSLSSVVTVPSSSLGTKTYTCNVDHKPSNTKVDKRVESKYGPPCPPCPAPEAAGGPSVFLFPPKPKDTLMISRTPEVTCVVVDVSQEDPEVQFNWYVDGVEVHNAKTKPREEQFQSTYRVVSVLTVLHQDWLNGKEYKCKVSNKGLPSSIEKTISKAKGQPREPQVYTLPPSQEEMTDNQVSLTCLVKGFYPSDIAVEWESNGQPENNYKTTPPVLMSDGSFFLASRLTVDKSRWQEGNVFSCSVMHEALHNHYTQKSLSLSLG
chain 2: RIQMTQSPSSLSASVGDRVTITCKSSQSLLYTSSQKNYLAWYQDKPGKAPKLLIYWASTRESGVPSRFSGSGSGTDFTLTISSLQPEDFATYYCQQYYAYPWTFGQGTKVEIKGQPKAAPSVTLFPPSSEELQANKATLVCYISDFYPGAVTVAWKADSSPVKAGVETTTPSKQSNNKYAAWSYLSLTPEQWKSHRSYSCQVTHEGSTVEKTVAPTEC
B3: in data set [14], the % AB (2x LC2) (incorrect assembly) came to 0%. In addition, the % AB (2x LC1) (incorrect assembly) in data set [15] worked out at 0%. The % AB (LC1/LC2) (correct IgG BsAb assembly) in data set [16] stood at 100%. The same protein showed a % AA Homodimer (incorrect assembly) in data set [13] of 0%.

B4: anti-c-Met 5D5 VH-human IgG1 HC with CH3 mutations E357D, S364R, Y407A, with 5D5 light chain (protein)
chain 1: EVQLVESGGGLVQPGGSLRLSCAASGYTFTSYWLHWVRQAPGKGLEWVGMIDPSNSDTRFNPNFKDRFTISADTSKNTAYLQMNSLRAEDTAVYYCATYRSYVTPLDYWGQGTLVTVSSASTKGPSVFPLAPSSKSTSGGTAALGCLVKDYFPEPVTVSWNSGALTSGVHTFPAVLQSSGLYSLSSVVTVPSSSLGTQTYICNVNHKPSNTKVDKRVEPKSCDKTHTCPPCPAPELLGGPSVFLFPPKPKDTLMISRTPEVTCVVVDVSHEDPEVKFNWYVDGVEVHNAKTKPREEQYNSTYRVVSVLTVLHQDWLNGKEYKCKVSNKALPAPIEKTISKAKGQPREPQVYTLPPSREDMTKNQVRLTCLVKGFYPSDIAVEWESNGQPENNYKTTPPVLDSDGSFFLASKLTVDKSRWQQGNVFSCSVMHEALHNHYTQKSLSLSPGK
chain 2: DIQMTQSPSSLSASVGDRVTITCKSSQSLLYTSSQKNYLAWYQQKPGKAPKLLIYWASTRESGVPSRFSGSGSGTDFTLTISSLQPEDFATYYCQQYYAYPWTFGQGTKVEIKRTVAAPSVFIFPPSDEQLKSGTASVVCLLNNFYPREAKVQWKVDNALQSGNSQESVTEQDSKDSTYSLSSTLTLSKADYEKHKVYACEVTHQGLSSPVTKSFNRGEC
Take B4: the % heterodimer (UPLC) in [17] and in data set [18] was 85% in each case.

B5: anti-c-Met 5D5 VH-human IgG1 HC with CH3 mutations E356G, E357D, S364Q, Y407A, with 5D5 light chain (protein)
chain 1: EVQLVESGGGLVQPGGSLRLSCAASGYTFTSYWLHWVRQAPGKGLEWVGMIDPSNSDTRFNPNFKDRFTISADTSKNTAYLQMNSLRAEDTAVYYCATYRSYVTPLDYWGQGTLVTVSSASTKGPSVFPLAPSSKSTSGGTAALGCLVKDYFPEPVTVSWNSGALTSGVHTFPAVLQSSGLYSLSSVVTVPSSSLGTQTYICNVNHKPSNTKVDKRVEPKSCDKTHTCPPCPAPELLGGPSVFLFPPKPKDTLMISRTPEVTCVVVDVSHEDPEVKFNWYVDGVEVHNAKTKPREEQYNSTYRVVSVLTVLHQDWLNGKEYKCKVSNKALPAPIEKTISKAKGQPREPQVYTLPPSRGDMTKNQVQLTCLVKGFYPSDIAVEWESNGQPENNYKTTPPVLDSDGSFFLASKLTVDKSRWQQGNVFSCSVMHEALHNHYTQKSLSLSPGK
chain 2: DIQMTQSPSSLSASVGDRVTITCKSSQSLLYTSSQKNYLAWYQQKPGKAPKLLIYWASTRESGVPSRFSGSGSGTDFTLTISSLQPEDFATYYCQQYYAYPWTFGQGTKVEIKRTVAAPSVFIFPPSDEQLKSGTASVVCLLNNFYPREAKVQWKVDNALQSGNSQESVTEQDSKDSTYSLSSTLTLSKADYEKHKVYACEVTHQGLSSPVTKSFNRGEC
Take B5: the % heterodimer (UPLC) in data set [17] came out at 92%; in [18], 94%.

The values are drawn from patent US20180009908.
